A short description of this series: yeast display, Sf9 membrane polyspecificity reagent, FACS + sequencing; frameworks hold sequencing errors. The procedure, abridged: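 Galactose-induced (36–48 hours) yeast carrying a synthetic nanobody display library were exposed to 10% biotinylated, detergent-solubilized Sf9 membrane reagent at 4 °C for 1 hour. FACS followed streptavidin microbead enrichment, using low and high (top ~1%) gates for expression (anti-HA) and reagent binding (streptavidin). Colony PCR, MiSeq 2 × 250 sequencing and CDR-length filtering followed. Labels for polyreactivity reflect the gate of origin.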
For “QVQLVESGGGLVPAGGSLRLSCAASGRTVRRNAMGWYRHAPGKERELVADISNGDSTKYADSVKGRFTISRDNAKNTVYLQMNSVNPEDTAVYYCATEVSWHWYQQSVTRMDYWGQGTQVTVSS”, the “polyreactivity (PSR sort gate)” value is given as “low polyreactivity”.

For “QVQLVESGGGLVQAGGSLRLSCAASGTFYRNAMGWYRQAPGKERELVAAISSGSNTDYADSVKGRFTISRDNAKNTVYLQMNSLKPEDTAVYYCAADSLARRYDYWGQGTQVTVSS”, the “polyreactivity (PSR sort gate)” value is recorded as “low polyreactivity”.

For “QVQLVESGGGLDQAGGSLRLSCAASGITFFNYAMGWYRQAPGKEREFVAGIDSSGGSTSYADSVKGRFTISRDNAKNTVYLQMNSLKPEDTAVYYCAADRTGSHFDYWGQGTQVTVSS”, the “polyreactivity (PSR sort gate)” value is on record as “low polyreactivity”.

Consider “QVQLVESGGGLVQAGGSLRLSCAASGRTFLRNAMRWYRQAPGKERELVATISIGGRTYYADSVKGRFTISRDNAKNTVYLQMNSLKPEDTAVYYCNASTSILSLDWEYGSWGQGTQVTVSS”, for which the “polyreactivity (PSR sort gate)” value is reported as “low polyreactivity”.

As to “QVHLVESGGGLVQAGGSLRLTCAASGSIFLWNAMGWYRQAPGTEREVVAAITWRGGSTYYADSVKGRFTISRDNEKYTVYLQMNSLKPEDTAVYYCAADSYDWMDYWGQGTQVTVSS”, the “polyreactivity (PSR sort gate)” value is “low polyreactivity”.

Take “QVQLVESGGGLLQAGGSLRLSCAASGRIFYYYAMGWYRQAPGKEREFVARNRSSGGSTYADSVKGRFTISRDNAKNTVYLQMNSLKPEDTAVYYCARDGYTAVEYDYWGQGTQVTVSS”: the “polyreactivity (PSR sort gate)” value is recorded as “low polyreactivity”.

With “QVQLVESGGGLVQAGGSLRLSCAASGFTIYYYAMAWYRQAPGKERELVAAISYSGGSTYYADSVKGRFTISRDNAKNTVYLQMNSLKPEDTAVYYCAVDWYGSYGYGGSQKSDYWGLGTQVTVSS”, the “polyreactivity (PSR sort gate)” value was “high polyreactivity”.

Consider “QVQLVESGGGLVQAGGSLRLSCAASGSTFDPYAMGWYRQAPGKERELVATINTGGDTHYADSVKGRFTISRDNAKNTVYLQMNSLKPEDTAVYYCNADYGKSRWIFDYWGQGTQVTVSS”, for which the “polyreactivity (PSR sort gate)” value is listed as “low polyreactivity”.

For “QVQLVESGGGLVQAGGSLRLSCAASGFTLRYYAMGWYRQAPGKERELVATINRSGASTYYADSVKGRFTISRDNAKNTVYLQMNRLKPEDTAVYYCNTATSRAYRYDYWGQGTQVTVSS”, the “polyreactivity (PSR sort gate)” value is listed as “high polyreactivity”.

As for “QVQLVESGGGLVQAGGSLRLSCAASGIIFEPNAMGWYRQAPGKERELVAAIDSGGITYYADSVKGRFTISRDNAKNTVYLQMNSLKPEDTAVYYCAAEAVVVTKYRYWTYGLYDYWGQGTQVTVSS”, the “polyreactivity (PSR sort gate)” value is “high polyreactivity”.

On to “QVQLVESGGGLVQAGGRLRLSCAASGFIFGSYAMGWYRQAPGKERELVAVISSSGGRTYYADSVKGRFTISRDNAKNTVYLQMNSLKPEDTAVYYCNAKSRLFPTYRIYDYWGQGTQVTVSS”, for which the “polyreactivity (PSR sort gate)” value is “high polyreactivity”.

For “QVQHVESGGGLVQAGGSLRLSCAASGYTFGYYAMGWYRQAPGKERELVASITERGGSTYYADSVKGRFTISRDNAKNTVYLQMNSLKPEDTAVYYCAADWDPSWWLFPTSSYDYWGQGTQVTVSS”, the “polyreactivity (PSR sort gate)” value was “low polyreactivity”.

With “QVQHEKSRGALVQAGGSLRLSCAASGSTVEKYTMGWYREAPGKVRELVAAISKSGGSTYYADSVKGRFTISRDNAMNTVYLQMNSLNPEDTAVDYCAALQYPRAGFDYWGQGTQVTVSS”, the “polyreactivity (PSR sort gate)” value is reported as “high polyreactivity”.

In the case of “QVQLVESGGGLVQAGGSLRLSCAPSGFTFLGYDMGWYRQAPGKERELVAAIDYSGGSTYYADSVKGRFTISRDNAKNTVFLQMNSLKPEDTAVYDCAAEYQSGPYTWYEYWGQGTQVTVSS”, the “polyreactivity (PSR sort gate)” value is on record as “high polyreactivity”.

As to “QVQLVESGGGLVQAGGSLRLSCAASGSIFHAYAMGWYRQAPGKERELDAAISYTGGTYYADSVKGRFTISRDNAKNTVYLQMNSLKPEDTAVYYCAIVTRYLHIGVPYVEFDYWGQGTQVTVSS”, the “polyreactivity (PSR sort gate)” value is on record as “low polyreactivity”.

Turning to “QVQLVESGGGLVQAGGSLRLSCAASGLIFYYYAMGWYRQAPGKERELVAAITSDDRTYYADSVKGRFTISRDNAKNTFYLQMNSLKPEDTAVYYCAARYHGYLPQYRKYGYGYWGQGTQVTVSS”, the “polyreactivity (PSR sort gate)” value is “high polyreactivity”.

For “QVQLVESGGGLVQAGGSLRLSCAASGRIVSGYVMGWYRQAPGKERELVAVISRSGGSTYYADSVKGRFTISRDNAKNTVYLQMNSLKPEDTAVYYCDAKHIDGSRGYDYWGQGTQVTVSS”, the “polyreactivity (PSR sort gate)” value was “low polyreactivity”.

In the case of “QVHLVESGGGLVQAGGSLRLSCAASGSTFFYAMGWYRQAPRKERELVAAISWIDSLTYYADSVKGRFTISRDNEKITVYLQMNILKAEDTAFYYCAAEGQNEGYDYWGQGSQVTVSS”, the “polyreactivity (PSR sort gate)” value is recorded as “high polyreactivity”.

In the case of “QVQLVESGGGLVQAGGSLRLSCAASGFIFSRYAKGWSRPAPGKERELVAAITRGGGDTYYADSVKGRFTISRDNAKNTVYLQMNSLKPEDTAVYYCNARYRRYTTRFGAMDYWGQGTQVTVSS”, the “polyreactivity (PSR sort gate)” value is listed as “high polyreactivity”.

For “QVQLVESGGGLVQAGGSLRLSCAASGSIFYKYMGWNRQAPGKERELVAAISWSGGRTYYADSVKGRFTISRDNAKNTVYLQMNSLKPEDTAVYYCNRVVLWRIGDKAFEYWGQGTQVTVSS”, the “polyreactivity (PSR sort gate)” value is on record as “high polyreactivity”.

For “QVQLVESAGGLVQAGGSLRLICAASGGTFVGYAMGWYRQAPGKERELVAAISRRGGSTYYADSVKGRFTISRDNAKNTVYLQMNSLKPEDTAVYYCAKSEHRSVPQYDYWGQGTQVTVSS”, the “polyreactivity (PSR sort gate)” value is given as “high polyreactivity”.

“QVQLVESGGGLVQAGGSLRLSCAASGRIFYLYAMGWYRQAPGKERELVAGITSGGRTNYADSVKGRFTISRDNAKNTVYLQMNSLKPEDTAVYYCAAFYWGRYTGYYWGQGTQVTVSS”: the “polyreactivity (PSR sort gate)” value is “high polyreactivity”.

As for “QVQLLESGGGLVQAGGSLRLSCAASGSIFRANAMGWYRQAPGKERELVAAITNGGRTNYADSVKGRFTISRDNAKNTVYLQMNSLKPEDTAVYYCAKDIYQHAKRRYDYWGQGTQVTVSS”, the “polyreactivity (PSR sort gate)” value is given as “low polyreactivity”.

As to “QVQLVESGGGLVLAGGSLRLSCAASGRTFELNALGWYRQAPGKERELVAAISWSGGSTYYADSVKGRFTISRDNAKNTVYLQMNSLKPEDTSVYYCAAQYQQGPFVKYYYWGQGPQVTVSS”, the “polyreactivity (PSR sort gate)” value is given as “high polyreactivity”.

Turning to “QVQHVESGGGLVQAGGSLRLSCASSGFILEPYGMGWYRPAPGKERELVAAITSGASTYYADSVKGRFTISRDNAMNTVYLQMNILKPEDTAVYYCAVDPYSTYSEYDSWGQGTQVTVSS”, the “polyreactivity (PSR sort gate)” value is listed as “low polyreactivity”.

Take “QVQLVESGGGLVQAGGSLRLSCAASGFTIHRYAMGWYRQAPGKERELVAAIRWSGGRTYYADSVKGRFTISRDNAKNTVYLQMNSLKPEDTAVYYCAARTNSPRGYGSDYWGKGTQVTVSS”: the “polyreactivity (PSR sort gate)” value is “high polyreactivity”.

For “QVQLVESGGGLVQAGGSLRLTCAATGRTFYNGMGWYRQAPGKERELVAAISRGGSTYYADSVKGRFTISRDNAKNTFYLQMTSLKPEDTAVYYCAIDQSRYVYVTLRGGYWGLGTQVTVSS”, the “polyreactivity (PSR sort gate)” value is recorded as “low polyreactivity”.

In the case of “QVQLVESGGGLVQAGGSLRLSCAASGRIFDPNAMGWYRQAPGKERELVARIRWWSDGSTYYADSVKGRFTISRDNAKNTVYLQMNSLKPEDTAVYYCATTANRVYGYAPWFGPRSEYWGQGTQVTVSS”, the “polyreactivity (PSR sort gate)” value is recorded as “high polyreactivity”.

With “QVQLVESGGGLVQAGGSLRLSCAASGIILSLYAMGWYRQAPGKERELVATIRFSGGSTYYADSVKGRFTISRDNAKNTVYLQMNSLKPEDTAVYYCNKHLATTFTVSRFDYWGQGTQVTVSS”, the “polyreactivity (PSR sort gate)” value is on record as “low polyreactivity”.

With “QVQLVESGGGLVQAGGSLRLSCAASGSTFFRYAMGLYRQAPGKEREFVAAITSSGGNTYYADSVKGRFTISRDNAKNTVYLQMNSLKPEDTAVYYCAAVWYSPYVKYNYWGQGTQVTVSS”, the “polyreactivity (PSR sort gate)” value was “low polyreactivity”.

Take “QVQLVESGGGLVQAGGSLRLSCADSGITFPVNDMGWSRQAHGKEREFVADITSSGGNTYYADSVKGRFTISRDNAKNTVYLKMNSLIPEDTAVYYCNADDGYFYVYQGWYEEMDYWGQGNQVTVSS”: the “polyreactivity (PSR sort gate)” value was “high polyreactivity”.

In the case of “QVQLVESGGGLVQAGGSLRLSCAASGFIFYYNAMGWYRQAPGKERELVAAITRSGGSTFYADSVKGRFTISRDNAKNTVYLQMNSLKPEDTAVYYCAAKGNPYRVPGSSYPKVNYWGQGTQVTVSS”, the “polyreactivity (PSR sort gate)” value is “high polyreactivity”.

For “QVQLVESGGGLVHAGGSLRLSCAASGSTFLSYAMGWYRQAPGKEREFVAAISWSDVNTYYADSVKGRFTISRDNAKNTVYLQMISLKPEDTAVYYCAAYYPSHDYSGFWSDTYEYWGQGTQVTVSS”, the “polyreactivity (PSR sort gate)” value was “low polyreactivity”.

Take “QVQLEESGGGLVQAGGSLRLSCAASGSTFVPYAMGWYRQAPGKERELVASISWRGGSTSYADSVKGRFTISRDNAKNTVYLQMNSLKPEDTAVYYCAADLGLDYDDAQTRVVVTSEDYWGQGTQVTVSS”: the “polyreactivity (PSR sort gate)” value was “high polyreactivity”.

As for “QVQLVESGGGLVQAGGSLRLSCAASGSIFVKYAMGWYRQAPGKERELVAAISRNGGSTYYADSVKGRFTISRDNAKNTVYLQMNSLKPEDTAVYYCNKVRPGWTYEYGYWGQGTQVTVSS”, the “polyreactivity (PSR sort gate)” value is on record as “high polyreactivity”.

Take “QVQLVESGGGLVQAGGILRLSCAASGRIFGYNAMGWYRQAPGKERELVAAIRQRAGSTNYADSVKGRFTISRDNSKNTVYLQMKSLKPEDTAVYYCAVDGNFFGEVRPYDYWGQGSQVTVSS”: the “polyreactivity (PSR sort gate)” value is listed as “low polyreactivity”.

“QVQLVESGGGLVQAGGSLRLSCAASGSIFPTYALGWYRQAPGKERELVAAISSIVGGTYYADSVKGRFTISRDNAKNTVYLQMNSLKPEDTAVYYCNKTKFQGYDYWGQGTQVTVSS”: the “polyreactivity (PSR sort gate)” value is given as “low polyreactivity”.

Regarding “QVQLVESGGGLVQAGGSLRLSCAASGFIFRWYAMGWYRQAPGKERELVASINWSGSRTNYADSVKGRFTISRDNAKYTVYLQMNSLKPEDTAVYYCNAYGGLQYDYWGQGTQVSVSS”, the “polyreactivity (PSR sort gate)” value was “high polyreactivity”.

On to “QVQLVESGGGLVQAGRSHRLSCAASGFTFFDNAMGWYRQAPGKERELVAAITWSDGSTYYADSVKGRFTISRDNAKNTVYLQMNSLKPEDTAVYYCNKRGWWDLRHDYWGQGTHVTVSS”, for which the “polyreactivity (PSR sort gate)” value was “low polyreactivity”.

Take “QVQLVESGGGLVQAGGSLRLSCAASGFTFYYYTMGWYRQAPGKERELVAAITLSGSTTYYADSVKGRFTISRDNAKNTVYLQMNSLKPEDTAVYYCAAGFSYEWGYPTFDYWGQGTQVTVSS”: the “polyreactivity (PSR sort gate)” value is given as “low polyreactivity”.
